This note sets out measurements from the RNAGym collection of RNA variant scans (doi:10.7554/elife.80360).

B1: CPEB3 Ribozyme (parent)
chain: GGGGGCCACAGCAGAAGCGUUCACGUCGCGGCCCCUGUCAGAUUCUGGUGAAUCUGCGAAUUCUGCUGU

The data set covers variants of B1. Put plainly: self-cleavage, relative activity (ratio to wild type); higher = more cleavage; co-transcriptional.
For GAGGGCCACAGCGGAAGCGUUCACGUCGCGGCCCCUGUCAGAUUCUGGUGAAUCUGCGAAUUCUGCUGU [G2A A13G], the self-cleavage stood at 0.129.
For GAGGGCCACAGCAGAAGUGUUCACGUCGCGGCCCCUGUCAGAUUCUGGUGAAUCUGCGAAUUCUGCUGU [G2A C18U], the self-cleavage is 0.0628.
Consider GAGGGCCACAGCAGAAGCGUUCACGUCGCGGCCACUGUCAGAUUCUGGUGAAUCUGCGAAUUCUGCUGU [G2A C34A], for which the self-cleavage amounted to 0.0453.
Turning to GAGGGCCACAGCAGAAGCGUUCACGUCGCGGCCUCUGUCAGAUUCUGGUGAAUCUGCGAAUUCUGCUGU [G2A C34U], the self-cleavage amounted to 0.106.
With GAGGGCCAAAGCAGAAGCGUUCACGUCGCGGCCCCUGUCAGAUUCUGGUGAAUCUGCGAAUUCUGCUGU [G2A C9A], the self-cleavage turned out to be 0.435.
As for GAGGGCCAUAGCAGAAGCGUUCACGUCGCGGCCCCUGUCAGAUUCUGGUGAAUCUGCGAAUUCUGCUGU [G2A C9U], the self-cleavage stood at 0.493.
Next, GAGGGCCAGAGCAGAAGCGUUCACGUCGCGGCCCCUGUCAGAUUCUGGUGAAUCUGCGAAUUCUGCUGU [G2A C9G]: 0.411.
On to GAGGGCCACAGCAGAAGCGUUCACGUCGCGGCCCCUGUCAGAUUCUGGUGAAUAUGCGAAUUCUGCUGU [G2A C54A], for which the self-cleavage is 0.112.
As to GAGGGCCACAGCAGAAGCGUUCACGUCGCGGCCCCUGUCAGAUUCUGGUGAAUUUGCGAAUUCUGCUGU [G2A C54U], the self-cleavage was found to be 0.152.
Consider GAGGGCCACAGCAGAAGCGUUCACGUCGAGGCCCCUGUCAGAUUCUGGUGAAUCUGCGAAUUCUGCUGU [G2A C29A], for which the self-cleavage came to 0.0397.
Next, GAGGGCCACAGCAGAAGCGUUCACGUCGGGGCCCCUGUCAGAUUCUGGUGAAUCUGCGAAUUCUGCUGU [G2A C29G]: 0.0351; GAGGGCCACAGCAGAAGCGUUCACGUCGUGGCCCCUGUCAGAUUCUGGUGAAUCUGCGAAUUCUGCUGU [G2A C29U]: 0.0474; UGGGGCCACAGCAGAAGCGUUCACGUCGCGGCCCCUGUCAGAUUCUGGUGAAUCUGCGAAUUCGGCUGU [G1U U64G]: 0.117.
Next, GAGGGCCACAGCAGAAGCGUUCAGGUCGCGGCCCCUGUCAGAUUCUGGUGAAUCUGCGAAUUCUGCUGU [G2A C24G]: 0.0162; GAGGGCCACAGCAGAAGCGUUGACGUCGCGGCCCCUGUCAGAUUCUGGUGAAUCUGCGAAUUCUGCUGU [G2A C22G]: 0.0504; GAGGGCCACAGCAGAAGCGUUUACGUCGCGGCCCCUGUCAGAUUCUGGUGAAUCUGCGAAUUCUGCUGU [G2A C22U]: 0.051.
As for GAGGGCCACCGCAGAAGCGUUCACGUCGCGGCCCCUGUCAGAUUCUGGUGAAUCUGCGAAUUCUGCUGU [G2A A10C], the self-cleavage was found to be 0.259.
Next, GAGGGCCACGGCAGAAGCGUUCACGUCGCGGCCCCUGUCAGAUUCUGGUGAAUCUGCGAAUUCUGCUGU [G2A A10G]: 0.201.
Next, GAGGGCUACAGCAGAAGCGUUCACGUCGCGGCCCCUGUCAGAUUCUGGUGAAUCUGCGAAUUCUGCUGU [G2A C7U]: 0.0501; GAGGGCAACAGCAGAAGCGUUCACGUCGCGGCCCCUGUCAGAUUCUGGUGAAUCUGCGAAUUCUGCUGU [G2A C7A]: 0.0557.
For the variant GAGGCCCACAGCAGAAGCGUUCACGUCGCGGCCCCUGUCAGAUUCUGGUGAAUCUGCGAAUUCUGCUGU [G2A G5C], the self-cleavage was 0.122.
For the variant GAGGACCACAGCAGAAGCGUUCACGUCGCGGCCCCUGUCAGAUUCUGGUGAAUCUGCGAAUUCUGCUGU [G2A G5A], the self-cleavage was found to be 0.0392.
Then GAGGGCCACAGGAGAAGCGUUCACGUCGCGGCCCCUGUCAGAUUCUGGUGAAUCUGCGAAUUCUGCUGU [G2A C12G], with 0.123; and GAUGGCCACAGCAGAAGCGUUCACGUCGCGGCCCCUGUCAGAUUCUGGUGAAUCUGCGAAUUCUGCUGU [G2A G3U], with 0.0425; and GACGGCCACAGCAGAAGCGUUCACGUCGCGGCCCCUGUCAGAUUCUGGUGAAUCUGCGAAUUCUGCUGU [G2A G3C], with 0.176.
Regarding GAAGGCCACAGCAGAAGCGUUCACGUCGCGGCCCCUGUCAGAUUCUGGUGAAUCUGCGAAUUCUGCUGU [G2A G3A], the self-cleavage was determined as 0.0827.
As for GAGGGCCACAGCAGAAGCGUUCACGUCGCGGCCCCUGUCAGAUUCUGGUGAAUCUGCGAAUUCUGAUGU [G2A C66A], the self-cleavage was 0.0939.
Take GAGGGCCACAGCAGAAGCGUUCACGUCGCGGCCCCUGUCAGAUUCUGGUGAAUCUGCGAAUUCUGUUGU [G2A C66U]: the self-cleavage was 0.236.
Turning to GAGGGCCACAGCAGAAGCGUUCACGUCGCGGCCCCUGUCAGAUUCUGGUGAAUCUGCGAAUUCUGGUGU [G2A C66G], the self-cleavage is 0.101.
Take GAGGGCCACAGCAGAAGCGUUCACGUCGCGGCCCCUGUCAGAUUCUGGUGCAUCUGCGAAUUCUGCUGU [G2A A51C]: the self-cleavage was determined as 0.0717.
As for GAGGGCCACAGCAGAAGCGUUCACGUCGCGGCCCCUGUCAGAUUCUGGUGGAUCUGCGAAUUCUGCUGU [G2A A51G], the self-cleavage worked out at 0.158.
On to GAGGGCCACAGCAGAAGCGUUCACGUCGCGGCCCCUGUCAGAUUCUGGUGUAUCUGCGAAUUCUGCUGU [G2A A51U], for which the self-cleavage amounted to 0.233.
Then GAGGGCCACAGCAGAAGCGUUCACGUCGCGGCCCCUGUCAGAUUCUGGUGAAUCUGCGAAUUGUGCUGU [G2A C63G], with 0.0931.
In the case of GAGGGCCACAGCAGAAGCGUUCACGUCGCGGCCCCUGUCAGAUUCUGGUGAAUCUGCGAAUUUUGCUGU [G2A C63U], the self-cleavage was found to be 0.173.
With GAGGGCCACAGCAGAAGCGUUCACGUCGCGGCCCCUGUCAGAUUCUGGUGAAUCUGCGAAUUCUGCUGU [G2A], the self-cleavage was determined as 0.216.
Then UGGGGCCACAGCAGAAGCGUUCACGUCGCGGCCCCUGUCAGAUUCUGGUGAAUCUGCGAAUUCUGCUGG [G1U U69G], with 0.265; and UGGGGCCACAGCAGAAGCGUUCACGUCGCGGCCCCUGUCAGAUUCUGGUGAAUCUGCGAAUUCUGCUGA [G1U U69A], with 0.194.
Regarding GAGGGCCACAGCAGAAGCGUUCGCGUCGCGGCCCCUGUCAGAUUCUGGUGAAUCUGCGAAUUCUGCUGU [G2A A23G], the self-cleavage stood at 0.15.
Consider GAGGGCCACAGCAGAAGCGUUCCCGUCGCGGCCCCUGUCAGAUUCUGGUGAAUCUGCGAAUUCUGCUGU [G2A A23C], for which the self-cleavage was found to be 0.111.
